This note sets out measurements from patent US9789130B2, “Method for blocking HIV entry into dendritic cells by inhibiting sialoadhesin-sialyllactose binding interactions with gangliosides” (LABORATORIOS DEL DR. ESTEVE, S.A., priority 2011, dated 2017).

The assay deals with T1, Siglec-1 (Homo sapiens, UniProt Q9BZZ2).
T1 construct: Siglec-1 expressed in LPS mDCs capture distinct ganglioside containing vesicles; endogenous in cells; host or cells: LPS-matured monocyte-derived dendritic cells (LPS mDCs) from donor PBMCs
The assay is described as follows: VLP capture by LPS mDCs pre-incubated with α-Siglec-1 mAbs. The assay is classed as cell-based. Conditions: 2 μg/ml mAb 7D2 treated with at least 100-fold molar excess of human recombinant protein. As for the experimental part: FIG. 11. Siglec-1 expressed in LPS mDCs capture distinct ganglioside containing vesicles, such as HIV-1 viral-like particles, liposomes, and exosomes. Capture of VLPHIV-Gag-eGFP by LPS mDCs that had been pre-incubated with decreasing concentrations of α-Siglec-1 mAb 7D2 before VLP exposure for 30 min at 37° C.
FIG. 12. Capture of VLPHIV-Gag-eGFP by LPS mDCs that had been pre-incubated with or without 2 μg/ml of α-Siglec-1 mAb 7D2 previously treated or not with at least a 100-fold molar excess of the indicated human recombinant proteins. Of note, Siglec-14 shares 100% of amino acid homology with Siglec-5 in the V-set domain.
FIG. 13. Blocking effect of α-Siglec-1 mAb 7-239. (A) Capture of VLPHIV-Gag-eGFP by LPS mDCs that had been pre-incubated with decreasing concentrations of α-Siglec-1 mAb 7-239 before VLP exposure for 30 min at 37° C. […] (B) Capture of VLPHIV-Gag-eGFP by LPS mDCs that had been pre-incubated with 10 μg/ml of the indicated mAbs before VLP exposure for 3 h at 37° C.

T1 sequence (Q9BZZ2 20-1709): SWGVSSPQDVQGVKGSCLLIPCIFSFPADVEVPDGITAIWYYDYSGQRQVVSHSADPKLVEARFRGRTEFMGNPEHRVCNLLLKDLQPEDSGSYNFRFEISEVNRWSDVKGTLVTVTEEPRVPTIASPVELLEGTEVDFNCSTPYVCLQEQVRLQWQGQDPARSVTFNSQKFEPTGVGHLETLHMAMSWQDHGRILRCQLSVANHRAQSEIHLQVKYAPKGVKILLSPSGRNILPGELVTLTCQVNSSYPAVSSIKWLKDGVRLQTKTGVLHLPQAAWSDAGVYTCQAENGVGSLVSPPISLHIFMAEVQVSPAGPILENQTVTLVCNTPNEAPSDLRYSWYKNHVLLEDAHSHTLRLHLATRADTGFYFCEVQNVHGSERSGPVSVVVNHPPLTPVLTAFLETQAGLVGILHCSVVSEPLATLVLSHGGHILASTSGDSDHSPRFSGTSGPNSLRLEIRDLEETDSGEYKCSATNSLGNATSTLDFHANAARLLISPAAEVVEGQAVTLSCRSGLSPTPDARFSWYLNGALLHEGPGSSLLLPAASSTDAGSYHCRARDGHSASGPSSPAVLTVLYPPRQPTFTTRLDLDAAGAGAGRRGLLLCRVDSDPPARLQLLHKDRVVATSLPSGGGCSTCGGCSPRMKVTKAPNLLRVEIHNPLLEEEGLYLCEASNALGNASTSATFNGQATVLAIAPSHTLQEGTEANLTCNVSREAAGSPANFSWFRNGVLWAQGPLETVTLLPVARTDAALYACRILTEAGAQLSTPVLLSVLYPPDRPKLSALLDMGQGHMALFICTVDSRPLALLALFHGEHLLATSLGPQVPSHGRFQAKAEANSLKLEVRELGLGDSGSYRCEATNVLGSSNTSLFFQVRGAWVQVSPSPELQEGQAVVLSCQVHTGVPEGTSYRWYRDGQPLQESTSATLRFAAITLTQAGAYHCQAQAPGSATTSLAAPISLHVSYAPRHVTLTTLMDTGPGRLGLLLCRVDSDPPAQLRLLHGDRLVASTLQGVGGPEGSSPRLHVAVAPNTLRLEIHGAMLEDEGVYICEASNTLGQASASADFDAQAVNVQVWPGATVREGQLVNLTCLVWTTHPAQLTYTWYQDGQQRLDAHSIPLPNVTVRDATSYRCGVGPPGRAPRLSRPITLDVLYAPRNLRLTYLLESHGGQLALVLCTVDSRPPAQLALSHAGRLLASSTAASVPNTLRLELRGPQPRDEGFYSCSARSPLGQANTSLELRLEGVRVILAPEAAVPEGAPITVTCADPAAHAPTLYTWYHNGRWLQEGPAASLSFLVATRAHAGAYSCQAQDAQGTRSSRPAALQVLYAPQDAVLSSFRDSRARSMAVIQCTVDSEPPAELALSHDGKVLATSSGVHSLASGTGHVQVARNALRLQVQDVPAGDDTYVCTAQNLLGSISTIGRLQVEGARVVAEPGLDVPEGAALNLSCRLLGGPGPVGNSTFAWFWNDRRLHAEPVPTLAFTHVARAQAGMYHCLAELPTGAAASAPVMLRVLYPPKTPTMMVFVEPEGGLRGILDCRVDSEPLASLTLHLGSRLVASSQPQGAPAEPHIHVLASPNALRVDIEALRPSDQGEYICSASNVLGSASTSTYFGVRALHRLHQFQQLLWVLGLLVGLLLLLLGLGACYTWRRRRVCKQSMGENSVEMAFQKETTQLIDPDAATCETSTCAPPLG

B1: purified Siglec-7: human recombinant Siglec-7 protein used to pre-treat mAb 7D2 (protein, UniProt Q9Y286 19-467, looked up)
Sialic acid-binding Ig-like …: QKSNRKDYSLTMQSSVTVQEGMCVHVRCSFSYPVDSQTDSDPVHGYWFRAGNDISWKAPVATNNPAWAVQEETRDRFHLLGDPQTKNCTLSIRDARMSDAGRYFFRMEKGNIKWNYKYDQLSVNVTALTHRPNILIPGTLESGCFQNLTCSVPWACEQGTPPMISWMGTSVSPLHPSTTRSSVLTLIPQPQHHGTSLTCQVTLPGAGVTTNRTIQLNVSYPPQNLTVTVFQGEGTASTALGNSSSLSVLEGQSLRLVCAVDSNPPARLSWTWRSLTLYPSQPSNPLVLELQVHLGDEGEFTCRAQNSLGSQHVSLNLSLQQEYTGKMRPVSGVLLGAVGGAGATALVFLSFCVIFIVVRSCRKKSARPAADVGDIGMKDANTIRGSASQGNLTESWADDNPRHHGLAAHSSGEEREIQYAPLSFHKGEPQDLSGQEATNNEYSEIKIPK
For the molecule B1, the “VLP capture by LPS mDCs with mAb 7D2 pre-incubated with purified protein” value was “had no effect”.

B2: CD83: human recombinant CD83 protein used to pre-treat mAb 7D2 (protein, UniProt Q01151 20-205, looked up)
CD83 antigen: TPEVKVACSEDVDLPCTAPWDPQVPYTVSWVKLLEGGEERMETPQEDHLRGQHYHQKGQNGSFDAPNERPYSLKIRNTTSCNSGTYRCTLQDPDGQRNLSGKVILRVTGCPAQRKEETFKKYRAEIVLLLALVIFYLTLIIFTCKFARLQSIFPDFSKAGMERAFLPVTSPNKHLGLVTPHKTELV
Regarding B2, the “VLP capture by LPS mDCs with mAb 7D2 pre-incubated with purified protein” value is reported as “had no effect”.
